Assay results published in patent US20260256927A1 (Merck Sharp & Dohme, published 2026).
Numbering of substitutions follows the chain as printed. Numbers in names are those of the source.

T1: IL-2Rα-Fc (Acro Biosystems, catalog #ILA-H5251) (UniProt P01589 22-217, limits assumed)
T1 construct: Bought reagent; Captured on an anti-Fc chip as SPR ligand; also called CD25; not shown: Fc part of the bought fusion
T1 sequence (looked up): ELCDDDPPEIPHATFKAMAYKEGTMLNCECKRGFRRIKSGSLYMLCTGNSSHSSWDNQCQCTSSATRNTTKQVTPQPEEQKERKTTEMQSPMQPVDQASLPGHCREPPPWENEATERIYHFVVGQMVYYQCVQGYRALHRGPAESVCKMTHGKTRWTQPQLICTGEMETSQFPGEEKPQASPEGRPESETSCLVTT

T2: IL-2Rβ-Fc (Acro Biosystems, catalog #ILB-H5253) (UniProt P14784 27-239, limits assumed)
T2 construct: Bought reagent; Captured on an anti-Fc chip as SPR ligand; also called CD122; not shown: Fc part of the bought fusion
T2 sequence (looked up): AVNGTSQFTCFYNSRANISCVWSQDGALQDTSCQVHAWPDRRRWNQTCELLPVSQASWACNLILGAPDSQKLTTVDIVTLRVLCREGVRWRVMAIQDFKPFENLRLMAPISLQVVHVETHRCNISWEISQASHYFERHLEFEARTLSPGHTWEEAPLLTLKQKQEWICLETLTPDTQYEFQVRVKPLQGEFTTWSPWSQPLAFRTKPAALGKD

B1: Aldesleukin-6His_S4/Y30/K34/Q73 pAMF (SP10686) conjugated to SC547 stump (ligand)
chain: MPTSFSTKKTQLQLEHLLLDLQMILNGINNFKNPFLTRMLTFKFYMPKKATELKHLQCLEEELKPLEEVLNLAFSKNFHLRPRDLISNINVIVLELKGSETTFMCEYADETATIVEFLNRWITFSQSIISTLTGGSHHHHHH
modifications: X5, X31, X35, X74 = pAMF (S4, Y30, K34, Q73), each conjugated to SC547 (conjugation stump)
notes: also called SP10726 stump conjugate
B2: Aldesleukin-6His_S4/K34/F77 pAMF (SP10682) conjugated to SC547 stump (ligand)
chain: B1 chain with F31Y, F74Q
modifications: X5, X35, X78 = pAMF (S4, K34, F77), each conjugated to SC547 (conjugation stump)
notes: also called SP10722 stump conjugate
B3: Aldesleukin-6His_S4/Y30/K34/V114 pAMF (SP10687) conjugated to SC547 stump (ligand)
chain: B1 chain with F74Q, V115F
modifications: X5, X31, X35, X115 = pAMF (S4, Y30, K34, V114), each conjugated to SC547 (conjugation stump)
notes: also called SP10727 stump conjugate
B4: Aldesleukin-6His_S4/K34/V114 pAMF (SP10683) conjugated to SC547 stump (ligand)
chain: B1 chain with F31Y, F74Q, V115F
modifications: X5, X35, X115 = pAMF (S4, K34, V114), each conjugated to SC547 (conjugation stump)
notes: also called SP10723 stump conjugate
B5: Aldesleukin_S4/K34/V114 pAMF (SP10774) conjugated to SC547 stump (ligand)
chain: MPTSFSTKKTQLQLEHLLLDLQMILNGINNYKNPFLTRMLTFKFYMPKKATELKHLQCLEEELKPLEEVLNLAQSKNFHLRPRDLISNINVIVLELKGSETTFMCEYADETATIFEFLNRWITFSQSIISTLT
modifications: X5, X35, X115 = pAMF (S4, K34, V114), each conjugated to SC547 (conjugation stump)
notes: also called SP10782 stump conjugate
B6: Aldesleukin_S4/Y30/K34/Q73 pAMF (SP10776) conjugated to SC547 stump (ligand)
chain: B5 chain with Y31F, Q74F, F115V
modifications: X5, X31, X35, X74 = pAMF (S4, Y30, K34, Q73), each conjugated to SC547 (conjugation stump)
notes: also called SP10784 stump conjugate
B7: Aldesleukin-6His_S4/Y30/K34 pAMF F41K (SP10684) conjugated to SC547 stump (ligand)
chain: B1 chain with F42K, F74Q
modifications: X5, X31, X35 = pAMF (S4, Y30, K34), each conjugated to SC547 (conjugation stump)
notes: also called SP10724 stump conjugate
B8: Aldesleukin-6His_S4/Y30/K34/R80 pAMF F41K (SP10688) conjugated to SC547 stump (ligand)
chain: B1 chain with F42K, F74Q, R81F
modifications: X5, X31, X35, X81 = pAMF (S4, Y30, K34, R80), each conjugated to SC547 (conjugation stump)
notes: also called SP10728 stump conjugate
B9: Aldesleukin_S4/Y30/K34 pAMF (SP10480) conjugated to SC547 stump (ligand)
chain: B5 chain with Y31F, F115V
modifications: X5, X31, X35 = pAMF (S4, Y30, K34), each conjugated to SC547 (conjugation stump)
notes: also called SP10504 stump conjugate
B10: Aldesleukin_S4/Y30/K34/V114 pAMF (SP10777) conjugated to SC547 stump (ligand)
chain: B5 chain with Y31F
modifications: X5, X31, X35, X115 = pAMF (S4, Y30, K34, V114), each conjugated to SC547 (conjugation stump)
notes: also called SP10785 stump conjugate
B11: Ald-6HIS_Q73pAMF (SP9965), unconjugated (ligand)
chain: B1 chain with F5S, F31Y, F35K
modifications: X74 = pAMF (Q73 in SEQ ID NO: 2/3 numbering)
notes: also called Aldesleukin-6His Q73TAG p-azidomethyl-L-phenylalanine
B12: Ald-6HIS_V114pAMF (SP9970) conjugated to DBCO 2 x 10 kDa PEG (PEG2) (ligand)
chain: B1 chain with F5S, F31Y, F35K, F74Q, V115F
modifications: X115 = pAMF (V114) conjugated to branched 20 kDa PEG (DBCO 2 x 10 kDa PEG, PEG2)
notes: also called SP9970 PEG2 conjugated
B13: Ald-6HIS_V114pAMF (SP9970), unconjugated (ligand)
chain: B1 chain with F5S, F31Y, F35K, F74Q, V115F
modifications: X115 = pAMF (V114 in SEQ ID NO: 2/3 numbering)
notes: also called Aldesleukin-6His V114TAG p-azidomethyl-L-phenylalanine
B14: Ald-6HIS_R80pAMF (SP9968) conjugated to DBCO 2 x 10 kDa PEG (PEG2) (ligand)
chain: B1 chain with F5S, F31Y, F35K, F74Q, R81F
modifications: X81 = pAMF (R80) conjugated to branched 20 kDa PEG (DBCO 2 x 10 kDa PEG, PEG2)
notes: also called SP9968 PEG2 conjugated
B15: Ald-6HIS_S4pAMF (SP9954) conjugated to DBCO 2 x 10 kDa PEG (PEG2) (ligand)
chain: B1 chain with F31Y, F35K, F74Q
modifications: X5 = pAMF (S4) conjugated to branched 20 kDa PEG (DBCO 2 x 10 kDa PEG, PEG2)
notes: also called SP9954 PEG2 conjugated
B16: Ald-6HIS_S4pAMF (SP9954), unconjugated (ligand)
chain: B1 chain with F31Y, F35K, F74Q
modifications: X5 = p-azidomethyl-L-phenylalanine (pAMF; S4 in SEQ ID NO: 2/3 numbering)
notes: also called Aldesleukin-6His S4TAG p-azidomethyl-L-phenylalanine
B17: Ald-6HIS_Y30pAMF (SP9957) conjugated to DBCO 2 x 10 kDa PEG (PEG2) (ligand)
chain: B1 chain with F5S, F35K, F74Q
modifications: X31 = pAMF (Y30) conjugated to branched 20 kDa PEG (DBCO 2 x 10 kDa PEG, PEG2)
notes: also called SP9957 PEG2 conjugated
B18: Ald-6HIS_Y30pAMF (SP9957), unconjugated (ligand)
chain: B1 chain with F5S, F35K, F74Q
modifications: X31 = pAMF (Y30 in SEQ ID NO: 2/3 numbering)
notes: also called Aldesleukin-6His Y30TAG p-azidomethyl-L-phenylalanine
B19: Ald-6HIS_R80pAMF (SP9968), unconjugated (ligand)
chain: B1 chain with F5S, F31Y, F35K, F74Q, R81F
modifications: X81 = pAMF (R80 in SEQ ID NO: 2/3 numbering)
notes: also called Aldesleukin-6His R80TAG p-azidomethyl-L-phenylalanine
B20: Ald-6HIS_K34pAMF (SP9833), unconjugated (ligand)
chain: B1 chain with F5S, F31Y, F74Q
modifications: X35 = pAMF (K34 in SEQ ID NO: 2/3 numbering)
notes: also called Aldesleukin-6His K34TAG p-azidomethyl-L-phenylalanine
B21: Ald-6HIS_K34pAMF (SP9833) conjugated to DBCO 2 x 10 kDa PEG (PEG2) (ligand)
chain: B1 chain with F5S, F31Y, F74Q
modifications: X35 = pAMF (K34) conjugated to branched 20 kDa PEG (DBCO 2 x 10 kDa PEG, PEG2)
notes: also called SP9833 PEG2 conjugated
B22: SP10725 (Aldesleukin-6His_S4/Y30/K34/R80 pAMF conjugated to SC579) (ligand)
chain: B1 chain with F74Q, R81F
modifications: X5, X31, X35, X81 = pAMF (S4, Y30, K34, R80), each conjugated to SC579 (releasable 20 kDa mPEG Fmoc-DBCO linker)
notes: also called SP10725 PEG conjugate
B23: SP10724 (Aldesleukin-6His_S4/Y30/K34 pAMF F41K conjugated to SC579) (ligand)
chain: B1 chain with F42K, F74Q
modifications: X5, X31, X35 = pAMF (S4, Y30, K34), each conjugated to SC579 (releasable 20 kDa mPEG Fmoc-DBCO linker)
notes: also called SP10724 PEG conjugate
B24: SP10728 (Aldesleukin-6His_S4/Y30/K34/R80 pAMF F41K conjugated to SC579) (ligand)
chain: B1 chain with F42K, F74Q, R81F
modifications: X5, X31, X35, X81 = pAMF (S4, Y30, K34, R80), each conjugated to SC579 (releasable 20 kDa mPEG Fmoc-DBCO linker)
notes: also called SP10728 PEG conjugate

target: T1, IL-2Rα-Fc (Acro Biosystems, catalog …); experiment: SPR, kinetic binding to IL-2 receptor

Binder	Kd
B1	30 nM
B2	40 nM
B3	100 nM
B4	300 nM
B5	100 nM
B6	9 nM

target: T2, IL-2Rβ-Fc (Acro Biosystems, catalog …); experiment: SPR, kinetic binding to IL-2 receptor

Binder	Kd
B1	600 nM
B2	3000 nM
B3	1000 nM
B7	3000 nM
B4	2000 nM
B8	2000 nM
B9	700 nM
B5	500 nM
B6	300 nM
B10	200 nM

target: T1, IL-2Rα-Fc (Acro Biosystems, catalog …); experiment: SPR (Biacore T200), kinetic; receptor-Fc captured on anti-Fc CM5 chip, IL-2 variant as analyte
Method: (§1) Anti-Fc polyclonal antibodies were immobilized onto a CM5 chip (GE Life Sciences) using amine coupling chemistry (from Amine Coupling Kit, GE Life Sciences). The immobilization steps were carried out at a flow rate of 25 μL/minute in 1×HBS-EP+ buffer (GE Life Sciences; 10× Stock diluted before use). The sensor surfaces were activated for 7 minutes with a mixture of NHS (0.05 M) and EDC (0.2 M). The anti-Fc antibodies were injected over all four flow cells at a concentration of 25 μg/mL in 10 mM sodium acetate, pH 4.5, for seven minutes. Ethanolamine (1 M, pH 8.5) was injected for seven minutes to block any remaining activated groups.
(§2) Kinetic binding experiments were performed at 25° C. using 1×HBS-EP+ with 0.05% BSA buffer. IL-2Rα-Fc or IL-2Rβ-Fc (Acro Biosystems, catalog #ILA-H5251, ILB-H5253) was injected over the anti-Fc surface at concentrations of 3-10 μg/mL for 12 seconds at a flow rate of 10 μL/minute on flow cells 2, 3 and 4, followed by a buffer wash for 30 seconds at the same flow rate. Kinetic characterization of conjugated or unconjugated aldesleukin or variants was carried out in a range of concentrations from 1 nM-10 μM and one injection of no antigen. After capturing ligand (IL-2Rα-Fc or IL-2Rβ-Fc) on the anti-Fc surface, the analyte (IL-2 variant) was bound for 60 seconds, followed by a 180 second dissociation phase at a flow rate of 50 μL/min. Between each ligand capture and analyte binding cycle, regeneration was carried out using two injections of 10 mM Glycine pH 1.5 for 30 seconds at 30 μL/minute, followed by a 30 second buffer wash step.

Binder	Kd
B11	7 nM
B12	500 nM
B13	50 nM
B14	100 nM
B15	100 nM
B16	8 nM
B17	300 nM
B18	9 nM
B19	20 nM

target: T2, IL-2Rβ-Fc (Acro Biosystems, catalog …); experiment: as above
Method: as §1, §2

Binder	Kd
B11	80 nM
B13	300 nM
B16	300 nM
B18	200 nM
B20	300 nM
B19	400 nM

target: T1, IL-2Rα-Fc (Acro Biosystems, catalog …); experiment: SPR (Biacore T200), kinetic; receptor-Fc captured on anti-Fc CM5 chip, IL-2 variant as analyte; unconjugated (pAMF incorporated, no PEG)
Method: as §1
as §2, with “Between each ligand capture and analyte binding cycle, regeneration was carried out using two injections of 10 mM Glycine pH 1.5 for 30 seconds at 30 μL/minute, followed by a 30 second buffer wash step.” left out

Binder	Kd
B20	7 nM

target: T1, IL-2Rα-Fc (Acro Biosystems, catalog …); experiment: SPR (Biacore T200), kinetic; receptor-Fc captured on anti-Fc CM5 chip, IL-2 variant as analyte; conjugated to DBCO 2 x 10 kDa PEG (PEG2)
Method: as §1
as §2, with “Between each ligand capture and analyte binding cycle, regeneration was carried out using two injections of 10 mM Glycine pH 1.5 for 30 seconds at 30 μL/minute, followed by a 30 second buffer wash step.” left out

Binder	Kd
B21	800 nM

target: T1, IL-2Rα-Fc (Acro Biosystems, catalog …); experiment: SPR, receptor-Fc captured on anti-Fc chip

Binder	binding result
B22	no binding
B23	no binding
B24	no binding
